Measured values from publication PMC4213662.

Assays:
[1] = biological target: ribosome-nascent chain complex actively translating a 3'-truncated lepB mRNA encoding the first 155 amino acids (Cy3B-labeled 50S subunit) (E. coli (strain MC4100) | E. coli) (UniProt P00803); assay: FRET or BRET; as a1 but 250 nM EF-G (slower elongation)
[2] = biological target: ribosome-nascent chain complex actively translating a 3'-truncated lepB mRNA encoding the first 155 amino acids (Cy3B-labeled 50S subunit) (E. coli (strain MC4100) | E. coli) (UniProt P00803); assay: FRET or BRET; single-molecule FRET in zero-mode waveguides; 100 nM Cy5-SRP in solution, RNCs translating lepB mRNA (155 amino acids) held by the biotinylated mRNA; 750 nM EF-G; Tris-based polymix buffer with 5 mg/ml BSA and 10 µM Blocking oligo; rates estimated from the time at which curves reach 50%

half-time of arrival after the initial binding event (2nd–10th arrivals) [1]: 12 s
half-time of first arrival [1]: 350 s
half-time of arrival after the initial binding event (2nd–10th arrivals) [2]: 5 s
half-time of first arrival [2]: 280 s
kon [2]: 1.8e+06 M⁻¹ s⁻¹
Substance: Cy5-labeled E. coli signal recognition particle (Ffh(E153C)-Cy5 reconstituted with 4.5S RNA) (from UniProt P0AGD7 1-453) (complex)
